Positions of bridges follow the written chain, without caps; N, C: chain ends. Non-standard residues stand in square brackets, D forms with d. 2Nal = N[C@@H](Cc1ccc2ccccc2c1)C(=O)O; Aad = N[C@@H](CCCC(=O)O)C(=O)O; Orn = NCCC[C@H](N)C(=O)O; Dab = NCC[C@H](N)C(=O)O
B1: Peptide No. 165 (peptide)
peptide: Ac-RE[Dab][dF]RW[Orn]-NH2
modifications: lactam 2-7
notes: also called Ac-Arg-cyclo(Glu-Dab-D-Phe-Arg-Trp-Orn)-NH2
B2: Peptide No. 159 (peptide)
peptide: RXQFRWX
modifications: N-terminal Ac; Dab 2 (X); D-Phe 4; hGlu 7 (X); cyclo(Dab 2-hGlu 7); C-terminal NH2
notes: also called Ac-Arg-cyclo(Dab-Gln-D-Phe-Arg-Trp-hGlu)-NH2
B3: Peptide No. 161 (peptide)
peptide: Ac-REN[dF]RW[Orn]-NH2
modifications: lactam 2-7
notes: also called Ac-Arg-cyclo(Glu-Asn-D-Phe-Arg-Trp-Orn)-NH2
B4: Peptide No. 155 (peptide)
peptide: Ac-RKN[dF]RWD-NH2
modifications: lactam 2-7
notes: also called Ac-Arg-cyclo(Lys-Asn-D-Phe-Arg-Trp-Asp)-NH2
B5: Peptide No. 162 (peptide)
peptide: Ac-RKN[dF]R[2Nal]D-NH2
modifications: lactam 2-7
SMILES: CC(=O)N[C@@H](CCCNC(=N)N)C(=O)N[C@H]1CCCCNC(=O)C[C@@H](C(N)=O)NC(=O)[C@H](Cc2ccc3ccccc3c2)NC(=O)[C@H](CCCNC(=N)N)NC(=O)[C@@H](Cc2ccccc2)NC(=O)[C@H](CC(N)=O)NC1=O
notes: also called Ac-Arg-cyclo(Lys-Asn-D-Phe-Arg-Nal2-Asp)-NH2
B6: Peptide No. 28 (peptide)
peptide: RDRFRWK
modifications: N-terminal Ac; D-Phe 4; cyclo(Asp 2-Lys 7); C-terminal NH2
notes: also called Ac-Arg-cyclo(Asp-Arg-D-Phe-Arg-Trp-Lys)-NH2
B7: Peptide No. 73 (peptide)
peptide: RDRFRWK
modifications: N-terminal Ac; D-Phe 4; cyclo(Asp 2-Lys 7); C-terminal OH
notes: also called Ac-Arg-cyclo(Asp-Arg-D-Phe-Arg-Trp-Lys)-OH
B8: Peptide No. 160 (peptide)
peptide: Ac-R[Aad]N[dF]RW[Dab]-NH2
modifications: lactam 2-7
notes: also called Ac-Arg-cyclo(hGlu-Asn-D-Phe-Arg-Trp-Dab)-NH2

Each binder was assayed against T1, human melanocortin receptor-4 (human, UniProt P32245 1-332) (assay: cell-based or functional assay).
T1 sequence (P32245 whole entry): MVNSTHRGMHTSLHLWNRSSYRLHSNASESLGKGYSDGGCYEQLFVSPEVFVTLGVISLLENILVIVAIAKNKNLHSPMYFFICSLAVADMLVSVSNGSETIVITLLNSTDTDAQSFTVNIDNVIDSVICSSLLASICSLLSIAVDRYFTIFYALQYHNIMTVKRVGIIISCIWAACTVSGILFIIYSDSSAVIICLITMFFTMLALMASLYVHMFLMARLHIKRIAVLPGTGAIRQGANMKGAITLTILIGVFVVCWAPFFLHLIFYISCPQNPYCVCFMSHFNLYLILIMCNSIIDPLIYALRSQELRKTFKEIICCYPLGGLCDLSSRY

intrinsic activity (cAMP, NDP-α-MSH is 100%) | Binder
95% | Ac-R[Dab]H[dF]RW[Aad]-NH2 (lactam 2-7) [Peptide No. 128]
101% | Ac-R[Aad]H[dF]RW[Dab]-NH2 (lactam 2-7) [Peptide No. 126]
91% | Ac-RDH[dF]RWK-NH2 (lactam 2-7) [Peptide No. 1]
98% | Ac-RDQ[dF]RWK-NH2 (lactam 2-7) [Peptide No. 32]
42% | Ac-RDV[dF]RWK-NH2 (lactam 2-7) [Peptide No. 16]

These binders were tested against T1, human melanocortin receptor-4 (assay: competition with [I125]-NDP-α-MSH, hMC4r HEK-293 membranes).

Ki | Binder
0.65 nM | B1

These binders were tested against T1, human melanocortin receptor-4 (assay: ratio of Ki at hMC1r to Ki at hMC4r).

binding selectivity, MC4r against MC1r | Binder
20 fold | B2
20 fold | B3
20 fold | B4
20 fold | B5

Each binder was assayed against T1, human melanocortin receptor-4 (assay: competition with Eu-NDP-α-MSH, hMC4r HEK-293 membranes).
Description: After incubation for 90 minutes at 37° C., the reaction was stopped by filtration over AcroWell 96-well filter plates (Pall Life Sciences). The filter plates were washed 4 times with 200 μL of ice-cold phosphate-buffered saline. DELFIA Enhancement solution (PerkinElmer Life Sciences) was added to each well. The plates were incubated on a shaker for 15 minutes and read at 340 nm excitation and 615 nm emission wavelengths. Each assay was conducted in duplicate and mean values were utilized. Ki values were determined by curve-fitting with Graph-Pad Prism® software using a one-site fixed-slope competition binding model.

Ki | Binder
4 nM | B6
60 nM | B7

Target: T1, human melanocortin receptor-4
Test: cell-based or functional assay
Remark: another data set of the same source

hMC4r EC50 | hMC4r Emax | Binder
0.245 nM | 98% | B8
0.825 nM | 99% | B2
0.413 nM | 91% | B3
– | 89% | Ac-[dR][Orn]Q[dF]RWE-NH2 (lactam 2-7) [Peptide No. 152]
0.189 nM | 97% | B4
– | 89% | Ac-[dR]DQ[dF]RWK-NH2 (lactam 2-7) [Peptide No. 71]
0.85 nM | 82% | B5

Each binder was assayed against human melanocortin receptor-1 (human, UniProt Q01726 1-317) (assay: cell-based or functional assay).
Chain of human melanocortin receptor-1 (Q01726 whole entry): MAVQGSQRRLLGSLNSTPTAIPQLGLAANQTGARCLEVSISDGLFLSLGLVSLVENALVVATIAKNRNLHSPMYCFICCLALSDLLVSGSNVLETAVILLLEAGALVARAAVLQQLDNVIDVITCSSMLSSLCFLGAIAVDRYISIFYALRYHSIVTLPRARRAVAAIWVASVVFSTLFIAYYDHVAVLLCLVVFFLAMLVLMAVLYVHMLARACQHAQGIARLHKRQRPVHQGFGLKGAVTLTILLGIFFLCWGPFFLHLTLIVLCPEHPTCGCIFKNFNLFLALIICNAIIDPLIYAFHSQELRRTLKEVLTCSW

hMC1r EC50 | hMC1r Emax | Binder
26 nM | 98% | B2
13 nM | 85% | B3
– | 89% | Ac-R[Orn]Q[dF]RWE-NH2 (lactam 2-7) [Peptide No. 150]
– | 85% | Ac-[dR][Orn]Q[dF]RWE-NH2 (lactam 2-7) [Peptide No. 152]
80 nM | 81% | Ac-[dR][Orn]N[dF]RWE-NH2 (lactam 2-7) [Peptide No. 156]
25 nM | – | Ac-R[Orn]N[dF]RWE-NH2 (lactam 2-7) [Peptide No. 154]
14 nM | 91% | B4
– | 88% | Ac-[dR]DQ[dF]RWK-NH2 (lactam 2-7) [Peptide No. 71]
22 nM | 89% | B5
